Data: article PMC11746154, “Cryo-EM structures of the Spo11 core complex bound to DNA” (Nature Structural & Molecular Biology, 2023)

T1: Spo11 (subunit of the purified S. cerevisiae Spo11 core complex) (S. cerevisiae, UniProt P23179 1-392)
T1 construct: Spo11, S. cerevisiae
T1 sequence: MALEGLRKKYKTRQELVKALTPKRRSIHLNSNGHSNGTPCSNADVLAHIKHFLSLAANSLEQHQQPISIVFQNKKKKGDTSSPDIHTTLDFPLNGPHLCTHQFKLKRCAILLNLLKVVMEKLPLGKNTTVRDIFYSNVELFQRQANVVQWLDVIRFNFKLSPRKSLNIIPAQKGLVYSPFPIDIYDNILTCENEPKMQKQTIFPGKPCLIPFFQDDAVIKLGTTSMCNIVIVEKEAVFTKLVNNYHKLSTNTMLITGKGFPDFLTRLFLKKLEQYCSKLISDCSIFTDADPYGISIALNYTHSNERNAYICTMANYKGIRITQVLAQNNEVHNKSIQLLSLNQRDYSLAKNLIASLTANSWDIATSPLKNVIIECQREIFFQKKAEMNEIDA

B1: Rec102 (subunit of the purified S. cerevisiae Spo11 core complex) (natural protein)
chain: MARDITFLTVFLESCGAVNNDEAGKLLSAWTSTVRIEGPESTDSNSLYIPLLPPGMLKIKLNFKMNDRLVTEEQELFTKLREIVGSSIRFWEEQLFYQVQDVSTIENHVILSLKCTILTDAQISTFISKPRELHTHAKGYPEIYYLSELSTTVNFFSKEGNYVEISQVIPHFNEYFSSLIVSQLEFEYPMVFSMISRLRLKWQQSSLAPISYALTSNSVLLPIMLNMIAQDKSSTTAYQILCRRRGPPIQNFQIFSLPAVTYNK
notes: Rec102, S. cerevisiae

How the values were obtained:
[1] = molecular target: T1, Spo11 (subunit of the purified S. …); assay: cryo-EM structure; core complex (subunits co-expressed and co-purified, ~0.2 mg/ml) incubated with hairpin DNA (3.7 Å) or gapped DNA (3.3 Å) at 1:2 protein:DNA in 25 mM HEPES-NaOH pH 7.5, 150 mM NaCl, 5 mM MgCl2, 2 mM DTT, 2% glycerol, 1 h on ice; conditions: both partners purified
[2] = molecular target: B1; assay: as above; conditions: both partners purified

stoichiometry N [1] | stoichiometry N [2] | Binder
1 | – | Ski8 (subunit of the purified S. cerevisiae Spo11 core complex) (natural protein, Ski8, S. cerevisiae) MSKVFIATANAGKAHDADIFSVSACNSFTVSCSGDGYLKVWDNKLLDNENPKDKSYSHFVHKSGLHHVDVLQAIERDAFELCLVATTSFSGDLLFYRITREDETKKVIFEKLDLLDSDMKKHSFWALKWGASNDRLLSHRLVATDVKGTTYIWKFHPFADESNSLTLNWSPTLELQGTVESPMTPSQFATSVDISERGLIATGFNNGTVQISELSTLRPLYNFESQHSMINNSNSIRSVKFSPQGSLLAIAHDSNSFGCITLYETEFGERIGSLSVPTHSSQASLGEFAHSSWVMSLSFNDSGETLCSAGWDGKLRFWDVKTKERITTLNMHCDDIEIEEDILAVDEHGDSLAEPGVFDVKFLKKGWRSGMGADLNESLCCVCLDRSIRWFREAGGK
1 | 1 | Rec104 (subunit of the purified S. cerevisiae Spo11 core complex) (natural protein, Rec104, S. cerevisiae; 182 residues as printed, of which only 9-58 are visible in the structure) MSIEEEDTNKITCTQDFLHQYFVTERVSIQFGLNNKTVKRINKDEFDKAVNCIMSWTNYPKPGLKRTASTYLLSNSFKKSATVSLPFILGDPVCMPKRVESNNNDTCLLYSDTLYDDPLIQRNDQAGDEIEDEFSFTLLRSEVNEIRPISSSSTAQILQSDYSALMYERQASNGSIFQFSSP
1 | – | B1
